According to the supplement of paper PMC9170038:

Tested on: MS2 coat protein
Test: apparent KD of MS2 coat protein; designed switch direction (-1 OFF switch, 1 ON switch): -1; higher = weaker reporter binding
Summary of the method: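 Stalled E. coli RNA polymerase transcribed designed RNA switches on Illumina chips, which were then titrated with SNAP-549-labelled MS2 coat protein, doubling from 0.7 or 1.5 nM to 3 µM. Steps lasted from 0.8–1.5 h at the lowest concentration to 10–20 min at the highest. The apparent KD is each design's median over clusters of curve-fitted normalised fluorescence.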

[1] = Eterna round: R95, input ligand: FMN 200 uM
[2] = Eterna round: R95, input ligand: microRNA oligo, concentration not stated
[3] = Eterna round: R95, input ligand: none
[4] = input ligand: microRNA oligo, concentration not stated

Sequence	apparent KD of MS2 coat protein [1] [nM]	apparent KD of MS2 coat protein [2] [nM]	apparent KD of MS2 coat protein [3] [nM]	apparent KD of MS2 coat protein (input ligand: FMN 200 uM) [nM]	apparent KD of MS2 coat protein [4] [nM]	apparent KD of MS2 coat protein (input ligand: none) [nM]
UCGAGGUCAGGAUAUACAUGAGGAUCACCCAUGUGGAUGUAAGGUAGGAGAAGAGUAGGUAGAAGGGACGAGAG [JR_Exclu3_Sub049] (puzzle: Exclusion 3)	46.7	37.8	55.4			
AAAUAAUAGAUAAAAUAAAACAUGAGGAUCACCCAUGUGGGAUGUUGAGGGUGAUACAAGCUUUUUGCUCGUCUUAU (puzzle: Sensor v3, turn-off variant 1)	233	45.6	271			
ACAAGCUUUUUGUUCGUCUUAUAAUAUUCAAUAAGGAUAACAUGAGGAUCACCCAUGUAACAAAGACGGACUCAUGU [Sesor Array 15 - Jieux - Sensor v3, turn-off variant 2] (puzzle: Sensor v3, turn-off variant 2)	17.2	133	13			
CACCUGAAGACAGGAUAUCAUACAUGAGGAUCACCCAUGUAAUAAAUGAGAAUUUCGAAUGUAAUUGAGAAGGGUCAAUAAGGC [Ostricism 96 - Jieux - Exclusion NG 2] (Eterna round: R96, puzzle: Exclusion NG 2)				58.7	31.3	29.2
AAUAGCAAGCAGAUCCUAAACAUGAGGAUCACCCAUGUGCUCGUCUUGUAAAGUACUAUCACGAAAGUGAUAGUACA [Sensor 3, v1 - 61] (puzzle: Sensor v3, turn-off variant 1)	118	326	88.3			
UUUUUACAUGAGGAUCACCCAUGUCAGGAUAUGCUUAUAUUUUAUUAUUUUAUUUUUUGCAGAAGGGACUAUUA [My solution] (Eterna round: R96, puzzle: Exclusion 1)				130	80.4	118
CCGGAAAUGCAGGAUAUCGUAUCGGAUACGAUACGAGAAGGGUAUACAUGAGGAUCACCCAUGUGUCCUGCCGG [Fiskers Ex 6 - 54] (puzzle: Exclusion 6)		39.8				
UGAUCACAUGAGGAUCACCCAUGUCAGGAUAUCGUCACUGGAGCUGCGGCUCCAGUGACGAGAAGGGAUAUAAU [E1/5-A3] (Eterna round: R97, puzzle: Exclusion 1)				293		104
UUUUAACAUGAGGAUCACCCAUGUGAGGAUAUCGAAAUUUAUAUUUAUAUUAAUUAAACGAGAAGGCACAUUUU [JMF 83] (puzzle: Exclusion 1)		74				
UUUAAUUGUCACAUGGGUGACAUGAGGAUCACCCAUGUCACAAGCUUUUUGCUCGUCUUAUAAUUAACCCAUGUGAC [Stov1/12-A1] (Eterna round: R97, puzzle: Sensor, turn-off variant 1)				13.4		13.7
GAUUAUGCGAGCUUUAGGGACAUGAGGAUCACCCAUGUUCGUCUUAUUAGUCUGAGUGCACUGACAUACCUAAAUCU [JMF 85] (puzzle: Sensor v3, turn-off variant 1)	15.4	22	16.7			
CUUUAGUGAGGAUAUCGGUAGUAAUACAAUAGUAUUACUACUGAGAAGGCACAUGAGGAUCACCCAUGUUCCUC [Mat - Exclusion 4 - Mod of Omei - D82] (Eterna round: R96, puzzle: Exclusion 4)				259	25.2	29.9
